Data published in patent US20120114755A1, “METHODS AND MATERIALS FOR TISSUE REPAIR” (MAYO FOUNDATION FOR MEDICAL EDUCATION AND RESEARCH, priority 2009, published 2012).
Ends that are not written are not given here.

B1: GDF-5: Recombinant human GDF-5 (MBL, Woburn, Mass.) (protein, UniProt P43026 382-501, looked up)
Growth/differentiation factor …: APLATRQGKRPSKNLKARCSRKALHVNFKDMGWDDWIIAPLEYEAFHCEGLCEFPLRSHLEPTNHAVIQTLMNSMDPESTPPTCCVPTRLSPISILFIDSANNVVYKQYEDMVVESCGCR

Experiments:
FDP tendons = assay: In vitro tissue culture tendon healing model, gel patch with BMSC and/or Substance P: biomechanical testing; format: cell-based, dogs; settings: zone III tendon groups, Substance P 10^−9, 2 weeks and 4 weeks
Description: Mixed-breed dogs being euthanized for other IACUC approved studies were used to harvest bone marrow from which bone marrow stromal cells (BMSCs) were cultured. The FDP tendons were harvested from dogs also being euthanized for other IACUC approved studies and these tendons were transected at similar levels, repaired with a single suture and incubated in tissue culture medium. Six repair groups was studied: (1) tendons ends opposed with two single loop sutures of 6/0 nylon (Ethicon, Somerville N.J.); (2) tendons repaired as in group 1 with the interposition of a collagen gel scaffold to the repair site (positive control group); (3) tendons repaired as in group 1 with the interposition of a BMSC-seeded collagen gel scaffold to the repair site; (4) tendons repaired as in group 1, with the interposition of a BMSC-seeded collagen gel scaffold to the repair site and addition of Substance P; (5) tendons repaired as in group 1, with the interposition of a BMSC-seeded collagen gel scaffold to the repair site and addition of GDF-5; and (6) tendons repaired as in group 1, with the interposition of a BMSC-seeded collagen gel scaffold to the repair site and addition of SP and GDF-5. […]
Confluent plates of BMSC were washed twice with sterile PBS and then trypsinized. The cells were counted with a hemocytometer and centrifuged to remove the media, forming a cell pellet with a known number of cells. […]

BMSCs [1] = assay: Quantitative RT-PCR of BMSCs cultured with GDF-5; format: cell-based, canine
Description: (§1) Immediately after euthanasia, 8.0 mL of bone marrow was aspirated from each tibia using a 15 mL syringe containing 2.0 mL of heparin solution. Heparin was removed and the bone marrow cells from one dog were divided into three 100-mm dishes in 10 mL of standard medium, which consists of minimal essential medium (MEM) with Earle's salts (Gibco, Grand Island, N.Y.), 10% fetal calf serum and 1% antibiotics (Antibiotic-Antimycotic, Gibco). The bone marrow cells were incubated at 37° C. with 5% CO2 and 95% air at 100% humidity. After 3 days, the medium containing floating cells was removed and new medium was added to the remaining adherent cells. These adherent cells were considered to be BMSCs. The medium was changed every 3 days. After the BMSCs formed colonies, they were treated with EDTA-trypsin to produce a cell suspension and centrifuged at 1500 rpm for 5 minutes to remove the EDTA-trypsin solution. The concentrated cell suspension was gathered in one tube and seeded in new dishes. Recombinant human GDF-5 (MBL, Woburn, Mass.) was added to the culture medium at a concentration of 100 ng/mL and culture continued for and additional 10 days.
Total RNA was extracted from culture cells using RNeasy Micro kit (Qiagen, Valencia, Calif.), according to the manufacturer's recommendations. The RNA concentration was determined using a NanoDrop (Thermo scientific, Waltham, Mass.). RNA was reverse transcribed into single-stranded cDNA with an anchored-oligo(dT) primer using Transcriptor First Strand cDNA Synthesis Kit (Roche). The reverse transcriptase was inactivated by heating to 85° C. for 5 minutes. The expression of tenomodulin (a marker of tenocyte differentiation), collagen type I and collagen type III was quantified with LightCycler 480 SYBR Green I Master kit (Roche) in a LightCycler 480 instrument (Roche). HPRT served as the reference gene. Five samples were measured in each group.

BMSCs [2] = assay: MTT cell proliferation assay of BMSCs with rhGDF-5; format: cell-based, dogs; settings: day 10 of cell culture, 100 ng/mL rhGDF-5
Description: as §1
Quantification of cell proliferation and viability was measured using Cell Proliferation Kit I (Roche, Basel, Switzerland). […] The absorbance was measured using Spectra Max Plus (Molecular Devises, Sunnyvale, Calif.). […]

| Molecule | maximum force compared with cell only control (FDP tendons) | collagen type I mRNA expression, treated vs untreated cells (BMSCs [1]; 100 ng/mL) | collagen type III mRNA expression, treated vs untreated cells (BMSCs [1]; 100 ng/mL) | expression of tenomodulin mRNA compared with untreated cells (BMSCs [1]; day 10, 100 ng/mL) | proliferation of BMSCs (MTT) compared with BMSCs without GDF5 stimulation (BMSCs [2]) |
| --- | --- | --- | --- | --- | --- |
| Substance P: neuropeptide, substance P (Sigma) (RPKPQQFFGLM-NH2; ends and bridges not checked; UniProt P20366 58-68, looked up) | significantly higher |  |  |  |  |
| B1 |  | no significant difference | no significant difference | increased | significantly increased |
